Each binder was assayed against T1, PD-1 (UniProt Q15116 25-167, limits assumed) (assay: ELISA, OD mutant/OD WT; B=70-90%).
T1 sequence (Q15116 25-167 limits assumed): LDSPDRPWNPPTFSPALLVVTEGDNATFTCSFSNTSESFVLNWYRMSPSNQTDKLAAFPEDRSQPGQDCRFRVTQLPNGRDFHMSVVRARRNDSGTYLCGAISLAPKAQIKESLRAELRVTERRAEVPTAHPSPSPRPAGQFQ

| Binder | binding activity (OD after mutation/OD wild type) [%] |
| --- | --- |
| anti-PD-1 antibody 1 light chain A25C (antibody, human IgG4 S228P, kappa, V domains shown) VH: QVQLVQSGVEVKKPGASVKVSCKASGYTFTNYYMYWVRQAPGQGLEWMGGINPSNGGTNFNEKFKNRVTLTTDSSTTTAYMELKSLQFDDTAVYYCARRDYRFDMGFDYWGQGTTVTVSS VL: EIVLTQSPATLSLSPGERATLSCRCSKGVSTSGYSYLHWYQQKPGQAPRLLIYLASYLESGVPARFSGSGSGTDFTLTISSLEPEDFAVYYCQHSRDLPLTFGGGTKVEIKR | 70 to 90 |
| anti-PD-1 antibody 1 light chain L37C (antibody, human IgG4 S228P, kappa, V domains shown) VH: QVQLVQSGVEVKKPGASVKVSCKASGYTFTNYYMYWVRQAPGQGLEWMGGINPSNGGTNFNEKFKNRVTLTTDSSTTTAYMELKSLQFDDTAVYYCARRDYRFDMGFDYWGQGTTVTVSS VL: EIVLTQSPATLSLSPGERATLSCRASKGVSTSGYSYCHWYQQKPGQAPRLLIYLASYLESGVPARFSGSGSGTDFTLTISSLEPEDFAVYYCQHSRDLPLTFGGGTKVEIKR | 70 to 90 |
| anti-PD-1 antibody 1 light chain L54C (antibody, human IgG4 S228P, kappa, V domains shown) VH: QVQLVQSGVEVKKPGASVKVSCKASGYTFTNYYMYWVRQAPGQGLEWMGGINPSNGGTNFNEKFKNRVTLTTDSSTTTAYMELKSLQFDDTAVYYCARRDYRFDMGFDYWGQGTTVTVSS VL: EIVLTQSPATLSLSPGERATLSCRASKGVSTSGYSYLHWYQQKPGQAPRLLIYCASYLESGVPARFSGSGSGTDFTLTISSLEPEDFAVYYCQHSRDLPLTFGGGTKVEIKR | 70 to 90 |
| anti-PD-1 antibody 1 light chain T31C (antibody, human IgG4 S228P, kappa, V domains shown) VH: QVQLVQSGVEVKKPGASVKVSCKASGYTFTNYYMYWVRQAPGQGLEWMGGINPSNGGTNFNEKFKNRVTLTTDSSTTTAYMELKSLQFDDTAVYYCARRDYRFDMGFDYWGQGTTVTVSS VL: EIVLTQSPATLSLSPGERATLSCRASKGVSCSGYSYLHWYQQKPGQAPRLLIYLASYLESGVPARFSGSGSGTDFTLTISSLEPEDFAVYYCQHSRDLPLTFGGGTKVEIKR | 70 to 90 |
| anti-PD-1 antibody 1 light chain A55C (antibody, human IgG4 S228P, kappa, V domains shown) VH: QVQLVQSGVEVKKPGASVKVSCKASGYTFTNYYMYWVRQAPGQGLEWMGGINPSNGGTNFNEKFKNRVTLTTDSSTTTAYMELKSLQFDDTAVYYCARRDYRFDMGFDYWGQGTTVTVSS VL: EIVLTQSPATLSLSPGERATLSCRASKGVSTSGYSYLHWYQQKPGQAPRLLIYLCSYLESGVPARFSGSGSGTDFTLTISSLEPEDFAVYYCQHSRDLPLTFGGGTKVEIKR | 70 to 90 |

What follows are binders tested against T1, PD-1 (assay: ELISA, OD mutant/OD WT; A=90-110%).

| Binder | binding activity (OD after mutation/OD wild type) [%] |
| --- | --- |
| anti-PD-1 antibody 2 heavy chain G33C (antibody, human IgG4 S228P, kappa, V domains shown) VH: QVQLVESGGGVVQPGRSLRLDCKASGITFSNSCMHWVRQAPGKGLEWVAVIWYDGSKRYYADSVKGRFTISRDNSKNTLFLQMNSLRAEDTAVYYCATNDDYWGQGTLVTVSS VL: EIVLTQSPATLSLSPGERATLSCRASQSVSSYLAWYQQKPGQAPRLLIYDASNRATGIPARFSGSGSGTDFTLTISSLEPEDFAVYYCQQSSNWPRTFGQGTKVEIKR | 90 to 110 |
| anti-PD-1 antibody 2 heavy chain G66C (antibody, human IgG4 S228P, kappa, V domains shown) VH: QVQLVESGGGVVQPGRSLRLDCKASGITFSNSGMHWVRQAPGKGLEWVAVIWYDGSKRYYADSVKCRFTISRDNSKNTLFLQMNSLRAEDTAVYYCATNDDYWGQGTLVTVSS VL: EIVLTQSPATLSLSPGERATLSCRASQSVSSYLAWYQQKPGQAPRLLIYDASNRATGIPARFSGSGSGTDFTLTISSLEPEDFAVYYCQQSSNWPRTFGQGTKVEIKR | 90 to 110 |
| anti-PD-1 antibody 2 heavy chain S63C (antibody, human IgG4 S228P, kappa, V domains shown) VH: QVQLVESGGGVVQPGRSLRLDCKASGITFSNSGMHWVRQAPGKGLEWVAVIWYDGSKRYYADCVKGRFTISRDNSKNTLFLQMNSLRAEDTAVYYCATNDDYWGQGTLVTVSS VL: EIVLTQSPATLSLSPGERATLSCRASQSVSSYLAWYQQKPGQAPRLLIYDASNRATGIPARFSGSGSGTDFTLTISSLEPEDFAVYYCQQSSNWPRTFGQGTKVEIKR | 90 to 110 |
| anti-PD-1 antibody 2 heavy chain S32C (antibody, human IgG4 S228P, kappa, V domains shown) VH: QVQLVESGGGVVQPGRSLRLDCKASGITFSNCGMHWVRQAPGKGLEWVAVIWYDGSKRYYADSVKGRFTISRDNSKNTLFLQMNSLRAEDTAVYYCATNDDYWGQGTLVTVSS VL: EIVLTQSPATLSLSPGERATLSCRASQSVSSYLAWYQQKPGQAPRLLIYDASNRATGIPARFSGSGSGTDFTLTISSLEPEDFAVYYCQQSSNWPRTFGQGTKVEIKR | 90 to 110 |
| anti-PD-1 antibody 2 heavy chain G55C (antibody, human IgG4 S228P, kappa, V domains shown) VH: QVQLVESGGGVVQPGRSLRLDCKASGITFSNSGMHWVRQAPGKGLEWVAVIWYDCSKRYYADSVKGRFTISRDNSKNTLFLQMNSLRAEDTAVYYCATNDDYWGQGTLVTVSS VL: EIVLTQSPATLSLSPGERATLSCRASQSVSSYLAWYQQKPGQAPRLLIYDASNRATGIPARFSGSGSGTDFTLTISSLEPEDFAVYYCQQSSNWPRTFGQGTKVEIKR | 90 to 110 |
| anti-PD-1 antibody 2 heavy chain S56C (antibody, human IgG4 S228P, kappa, V domains shown) VH: QVQLVESGGGVVQPGRSLRLDCKASGITFSNSGMHWVRQAPGKGLEWVAVIWYDGCKRYYADSVKGRFTISRDNSKNTLFLQMNSLRAEDTAVYYCATNDDYWGQGTLVTVSS VL: EIVLTQSPATLSLSPGERATLSCRASQSVSSYLAWYQQKPGQAPRLLIYDASNRATGIPARFSGSGSGTDFTLTISSLEPEDFAVYYCQQSSNWPRTFGQGTKVEIKR | 90 to 110 |
| anti-PD-1 antibody 2 heavy chain S30C (antibody, human IgG4 S228P, kappa, V domains shown) VH: QVQLVESGGGVVQPGRSLRLDCKASGITFCNSGMHWVRQAPGKGLEWVAVIWYDGSKRYYADSVKGRFTISRDNSKNTLFLQMNSLRAEDTAVYYCATNDDYWGQGTLVTVSS VL: EIVLTQSPATLSLSPGERATLSCRASQSVSSYLAWYQQKPGQAPRLLIYDASNRATGIPARFSGSGSGTDFTLTISSLEPEDFAVYYCQQSSNWPRTFGQGTKVEIKR | 90 to 110 |

These binders were tested against CTLA-4 (UniProt P16410 36-162, limits assumed) (assay: ELISA, OD mutant/OD WT; A=90-110%).
Chain of CTLA-4 (P16410 36-162 limits assumed): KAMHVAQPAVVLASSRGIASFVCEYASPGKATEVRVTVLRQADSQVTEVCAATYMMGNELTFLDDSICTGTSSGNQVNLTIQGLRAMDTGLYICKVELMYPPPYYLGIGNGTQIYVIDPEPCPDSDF

| Binder | binding activity (OD after mutation/OD wild type) [%] |
| --- | --- |
| anti-CTLA-4 antibody light chain A25C (antibody, human IgG1, kappa, V domains shown) VH: QVQLVESGGGVVQPGRSLRLSCAASGFTFSSYTMHWVRQAPGKGLEWVTFISYDGNNKYYADSVKGRFTISRDNSKNTLYLQMNSLRAEDTAIYYCARTGWLGPFDYWGQGTLVTVSS VL: not shown | 90 to 110 |
| anti-CTLA-4 antibody light chain S95C (antibody, human IgG1, kappa, V domains shown) VH: QVQLVESGGGVVQPGRSLRLSCAASGFTFSSYTMHWVRQAPGKGLEWVTFISYDGNNKYYADSVKGRFTISRDNSKNTLYLQMNSLRAEDTAIYYCARTGWLGPFDYWGQGTLVTVSS VL: not shown | 90 to 110 |
| anti-CTLA-4 antibody light chain S28C (antibody, human IgG1, kappa, V domains shown) VH: QVQLVESGGGVVQPGRSLRLSCAASGFTFSSYTMHWVRQAPGKGLEWVTFISYDGNNKYYADSVKGRFTISRDNSKNTLYLQMNSLRAEDTAIYYCARTGWLGPFDYWGQGTLVTVSS VL: not shown | 90 to 110 |
| anti-CTLA-4 antibody light chain T57C (antibody, human IgG1, kappa, V domains shown) VH: QVQLVESGGGVVQPGRSLRLSCAASGFTFSSYTMHWVRQAPGKGLEWVTFISYDGNNKYYADSVKGRFTISRDNSKNTLYLQMNSLRAEDTAIYYCARTGWLGPFDYWGQGTLVTVSS VL: not shown | 90 to 110 |
| anti-CTLA-4 antibody light chain S54C (antibody, human IgG1, kappa, V domains shown) VH: QVQLVESGGGVVQPGRSLRLSCAASGFTFSSYTMHWVRQAPGKGLEWVTFISYDGNNKYYADSVKGRFTISRDNSKNTLYLQMNSLRAEDTAIYYCARTGWLGPFDYWGQGTLVTVSS VL: not shown | 90 to 110 |
| anti-CTLA-4 antibody light chain S32C (antibody, human IgG1, kappa, V domains shown) VH: QVQLVESGGGVVQPGRSLRLSCAASGFTFSSYTMHWVRQAPGKGLEWVTFISYDGNNKYYADSVKGRFTISRDNSKNTLYLQMNSLRAEDTAIYYCARTGWLGPFDYWGQGTLVTVSS VL: not shown | 90 to 110 |
| anti-CTLA-4 antibody light chain G93C (antibody, human IgG1, kappa, V domains shown) VH: QVQLVESGGGVVQPGRSLRLSCAASGFTFSSYTMHWVRQAPGKGLEWVTFISYDGNNKYYADSVKGRFTISRDNSKNTLYLQMNSLRAEDTAIYYCARTGWLGPFDYWGQGTLVTVSS VL: not shown | 90 to 110 |
| anti-CTLA-4 antibody light chain G58C (antibody, human IgG1, kappa, V domains shown) VH: QVQLVESGGGVVQPGRSLRLSCAASGFTFSSYTMHWVRQAPGKGLEWVTFISYDGNNKYYADSVKGRFTISRDNSKNTLYLQMNSLRAEDTAIYYCARTGWLGPFDYWGQGTLVTVSS VL: not shown | 90 to 110 |
| anti-CTLA-4 antibody light chain G30C (antibody, human IgG1, kappa, V domains shown) VH: QVQLVESGGGVVQPGRSLRLSCAASGFTFSSYTMHWVRQAPGKGLEWVTFISYDGNNKYYADSVKGRFTISRDNSKNTLYLQMNSLRAEDTAIYYCARTGWLGPFDYWGQGTLVTVSS VL: not shown | 90 to 110 |
| anti-CTLA-4 antibody light chain G51C (antibody, human IgG1, kappa, V domains shown) VH: QVQLVESGGGVVQPGRSLRLSCAASGFTFSSYTMHWVRQAPGKGLEWVTFISYDGNNKYYADSVKGRFTISRDNSKNTLYLQMNSLRAEDTAIYYCARTGWLGPFDYWGQGTLVTVSS VL: not shown | 90 to 110 |
| anti-CTLA-4 antibody light chain S94C (antibody, human IgG1, kappa, V domains shown) VH: QVQLVESGGGVVQPGRSLRLSCAASGFTFSSYTMHWVRQAPGKGLEWVTFISYDGNNKYYADSVKGRFTISRDNSKNTLYLQMNSLRAEDTAIYYCARTGWLGPFDYWGQGTLVTVSS VL: not shown | 90 to 110 |
| anti-CTLA-4 antibody light chain S31C (antibody, human IgG1, kappa, V domains shown) VH: QVQLVESGGGVVQPGRSLRLSCAASGFTFSSYTMHWVRQAPGKGLEWVTFISYDGNNKYYADSVKGRFTISRDNSKNTLYLQMNSLRAEDTAIYYCARTGWLGPFDYWGQGTLVTVSS VL: not shown | 90 to 110 |
| anti-CTLA-4 antibody light chain S26C (antibody, human IgG1, kappa, V domains shown, also called CTLA-4-Ser26Cys) VH: QVQLVESGGGVVQPGRSLRLSCAASGFTFSSYTMHWVRQAPGKGLEWVTFISYDGNNKYYADSVKGRFTISRDNSKNTLYLQMNSLRAEDTAIYYCARTGWLGPFDYWGQGTLVTVSS VL: not shown | 90 to 110 |
